Key:
[1] = system: human ovarian cancer cells SKOV3; assay: Human ovarian cancer cells SKOV3 injected intraperitoneally in SCID mice: tumors and secondary nodules; format: in vivo, mouse; conditions: 38 days, G129R 100 ug daily, DCT 25 ug weekly
Description: SCID mice (laboratory experimental animals that lack both T and B lymphocytes) were injected with one million human ovarian cancer cells SKOV3 intraperitoneally on day 1.
All mice were treated for 38 days and then sacrificed, and tumors from every experimental group were weighted.
The effect of G129R and the G129R+DCT combination on the ability of human ovarian cancer cells to metastasize was also studied.

[2] = system: mouse ovarian cancer cells ID8; assay: Mouse ovarian cancer cells ID8 injected intraperitoneally in SCID mice: tumors and secondary nodules; format: in vivo; conditions: 52 days, G129R 100 ug daily, DCT 25 ug weekly
Description: SCID mice were injected with one million mouse ovarian cancer cells ID8 intraperitoneally on day 1.
All mice were treated for 52 days and then sacrificed, and tumors from every experimental group were weighted.
The effect of G129R and the G129R+DCT combination on the ability of mouse ovarian cancer cells to metastasize was also studied.

[3] = system: Human triple-negative breast cancer cells MDA-MB-231; assay: ALDH1 activity (ALDEFLUOR fluorescent assay) in triple-negative breast cancer cells; format: cell-based; conditions: MDA-MB-231, G129R 10 ug/ml, three days, vs control
Description: Human triple-negative breast cancer cells MDA-MB-231 and control breast cancer cells T-47D were plated in 6 well plates at 1×10^5 cells/ml, and allowed to adhere for 24 hours in growth media followed by 2 hours of serum free media depletion. The cells were then cultured either without (control) or with prolactin (100 ng/ml) or G129R (10 ug/ml) for three days. The cells were then collected and the ALDH-1 activity (this enzyme is a marker for cancer stem cells. See Ginestier et al., Cell Stem Cell 2007 1(5): 555-567) was measured by ALDEFLUOR^R fluorescent assay (StemCell Technologies).

[4] = system: mammary HER2+ adenocarcinomas of MMTV/neu transgenic mice; assay: ALDH1 activity in tumor cells isolated from treated MMTV/neu transgenic mice; format: in vivo, mouse
Description: MMTV/neu transgenic mice carry an activated c-neu oncogene driven by a mouse mammary tumor virus (MMTV) promoter and develop mammary HER2^+ adenocarcinomas (Muller et al. 1988. Cell. 54(1):105-15). MMTV/neu transgenic mice bearing mammary tumors were treated with PBS (n=4) or G129R for 5 (n=2) or 10 (n=3) days (10 mg/kg, i.p.). The tumors were isolated at the end of treatment, digested to a single cell suspension, and ALDH1 activity levels were compared.

[5] = system: Primary mammary tumor cells isolated from MMTV/neu transgenic mouse; assay: ALDH1 activity in cultured primary MMTV/neu mammary tumor cells, time course; format: cell-based; conditions: G129R 10 ug/ml
Description: Primary mammary tumor cells were isolated from MMTV/neu transgenic mouse and cultured in the presence of G129R (10 ug/ml) or PRL (100 ng/ml) for 24, 48, 72, or 96 hrs. Specifically, tumor removed from an MMTV-neu mouse was digested to a single cell suspension and plated in 12-well plates at 1×10^5 cells/ml. Cells were allowed to adhere for 24 hours in growth media followed by 2 hours of serum-free media depletion. The cells were then either treated without (control) or with prolactin (100 ng/ml) or G129R (10 ug/ml). Cells were collected following 24, 48, 72, or 96 hours of treatment and the ALDH-1 activity was measured.

[6] = system: lung metastases of HER2+/neu breast tumors; assay: Lung metastases after removal of primary breast tumors in MMTV/neu mice; format: in vivo, mouse; conditions: 200 ug/day i.p. for more than 40 days, vs untreated control, P<0.05
Description: Primary breast tumors were removed from MMTV/neu transgenic mice. The mice were then treated either with PBS or G129R (200 ug/day, i.p.) for more than 40 days. When the secondary tumors (recurrence) grew to a certain size, the mice were sacrificed and the lungs were excised and fixed in Bouin's fixative to observe metastasis.

[7] = system: HER2+/neu tumors implanted into female transgenic mice; assay: Growth of implanted tumors in transgenic mice; format: in vivo, mouse; conditions: 10 mg/kg i.p. daily, 50 days; ±SEM
Description: In two separate experiments, tumors were isolated from female transgenic mice, sectioned into equivalent sized pieces and implanted into age-matched recipient female transgenic mice. Ten days after implantation, mice were randomized into either control (n=3-4) or G129R treated groups (n=4, 10 mg/kg, i.p. daily). The mice were then treated on a daily basis for 50 days and tumor volumes for the control and treated groups were monitored.

[8] = system: phosphorylated Neu protein; assay: Phosphorylation of Neu protein in primary and secondary tumors (western blotting); format: in vivo, mouse; conditions: 200 ug per day for 5 days, vs PBS
Description: MMTV/neu mice (bearing primary and secondary tumors) were treated either with PBS (control) or with 200 ug of G129R per day for 5 days. Primary and secondary tumors were removed 24 hours following the 5th treatment and processed for western blotting.

[9] = system: phosphorylated HER2/neu protein; assay: Dose-dependent response of phosphorylated HER2/neu in tumors in vivo (western blotting); parameters: species or system mouse; conditions: i.p. for ten days; 2.5, 5, 10, 20 mg/kg/day tested
Description: To determine a minimal dosage of G129R required for decreasing phosphorylation of HER^+/neu in vivo, a biopsy was removed from tumors of MMTV/neu transgenic mice and was used as a self-control baseline. The mice were then treated i.p. for ten days with either PBS or G129R at the following concentrations: 50, 100, 200 or 400 ug daily (2.5 mg/kg/day, 5 mg/kg/day; 10 mg/kg/day; or 20 mg/kg/day of G129R). The tumors were then harvested and processed for western blotting. The western blots were then probed with an antibody that detects phosphorylated HER2/neu protein and an antibody against beta-tubulin as a control for gel loading and western blotting transfer.

[10] = system: phosphorylated HER2/neu protein; assay: Time-dependent response of phosphorylated HER2/neu in tumors in vivo (western blot); parameters: species or system mouse; conditions: 10 mg/kg/day i.p.
Description: To determine an optimal length of treatment with G129R, MMTV tumor-bearing mice were treated with 200 ug G129R for either five or ten days. Tumors were removed 24 hours after the last treatment and processed for western blot analysis. […] As also can be seen in FIG. 8, of 10 mice receiving a 10 day treatment of G129R (10 mg/kg/day, i.p.), tumors from 3 mice were highly responsive and virtually no phosphorylated HER2/neu was detected in these tumors, 5 mice were moderately responsive and 2 mice were nonresponsive.

## CC(=O)O[C@@]12CO[C@@H]1C[C@H](O)[C@@]1(C)C(=O)[C@H](O)C3=C(C)[C@@H](OC(=O)[C@H](O)[C@@H](NC(=O)OC(C)(C)C)c4ccccc4)C[C@@](O)([C@@H](OC(=O)c4ccccc4)[C@H]21)C3(C)C [docetaxel, reference compound]
[1]
  number of secondary nodules (metastases) versus control: suppressed the number of secondary nodules
  size (weight) of tumors versus control: suppressed the growth of tumors
[2]
  number of secondary nodules (metastases) versus control: suppressed the number of secondary nodules
  size (weight) of tumors versus control: suppressed the tumor growth

B1: G129R: prolactin receptor antagonist: human prolactin in which glycine at position 129 is substituted with arginine (protein)
chain: LPICPGGAARCQVTLRDLFDRAVVLSHYIHNLSSEMFSEFDKRYTHGRGFITKAINSCHTSSLATPEDKEQAQQMNQKDFLSLIVSILRSWNEPLYHLVTEVRGMQEAPEAILSKAVEIEEQTKRLLERMELIVSQVHPETKENEIYPVWSGLPSLQMADEESRLSAYYNLLHCLRRDSHKIDNYLKLLKCRIIHNNNC
[3]
  ALDH1 activity in triple-negative breast cancer cells: significantly reduced
[4]; 10 mg/kg i.p. for 5 or 10 days, vs PBS
  ALDH1 activity in cancer cells isolated from treated animals: significantly reduced
[4]; 10 mg/kg i.p., ten days
  ALDH1 activity in cancer cells after ten days of treatment: Practically no ALDH1 activity was detected
[5]; 96 hrs
  reduction of ALDH1 activity versus control: 92.3%
[5]; 24, 48, 72, 96 hrs
  ALDH1 activity over the time course: steady decrease
[6]
  percentage of animals with lung metastases: significantly reduced
[7]
  final tumor volume smaller than control (first value of two experiments): 67.1%
  final tumor volume smaller than control (second value of two experiments): 71.5%
  final tumor weight reduced versus control (first value of two experiments): 61.3%
  final tumor weight reduced versus control (second value of two experiments): 62.5%
[8]
  phosphorylated Neu protein in primary tumors: significant decrease
[8]; some phosphorylated neu still detected
  phosphorylation of neu in secondary tumors: decrease
[9]
  lowest dosage with inhibitory effect on phosphorylation of HER+/neu: 5 mg/kg/day
[10]; of 10 mice, 10 day treatment
  mice highly responsive (virtually no phosphorylated HER2/neu detected): 3 mice
  mice moderately responsive: 5 mice
  nonresponsive mice: 2 mice
[10]; of 14 mice, 5 day treatment
  mice moderately responsive (noticeable reduction in phosphorylated HER2/neu): 4 mice
  mice whose tumors showed drastic reduction in phosphorylated HER2/neu: 5 mice
  nonresponsive mice: 5 mice
[1]
  number of secondary nodules (metastases) versus control: decreased the number of secondary nodules
  size (weight) of tumors versus control: decreased the size of tumors
[2]
  number of secondary nodules (metastases) versus control: decreased the number of secondary nodules
  size (weight) of tumors versus control: decreased the size of tumors

Source: patent publication US20130231286A1, “Use of Prolactin Receptor Antagonist and Chemotherapeutic Drug for Treating Ovarian Cancer” (ONCOLIX, INC., priority 2010, published 2013)
